Reference: article PMC10246721, “Cryo-EM structures for the Mycobacterium tuberculosis iron-loaded siderophore transporter IrtAB” (Protein & Cell, 2022)

Molecular target: T1, IrtA, full length (subunit of full-length Mtb IrtAB) (Mycobacterium tuberculosis H37Rv, UniProt P9WQJ9 1-859)
T1 construct: also called Rv1348
T1 sequence: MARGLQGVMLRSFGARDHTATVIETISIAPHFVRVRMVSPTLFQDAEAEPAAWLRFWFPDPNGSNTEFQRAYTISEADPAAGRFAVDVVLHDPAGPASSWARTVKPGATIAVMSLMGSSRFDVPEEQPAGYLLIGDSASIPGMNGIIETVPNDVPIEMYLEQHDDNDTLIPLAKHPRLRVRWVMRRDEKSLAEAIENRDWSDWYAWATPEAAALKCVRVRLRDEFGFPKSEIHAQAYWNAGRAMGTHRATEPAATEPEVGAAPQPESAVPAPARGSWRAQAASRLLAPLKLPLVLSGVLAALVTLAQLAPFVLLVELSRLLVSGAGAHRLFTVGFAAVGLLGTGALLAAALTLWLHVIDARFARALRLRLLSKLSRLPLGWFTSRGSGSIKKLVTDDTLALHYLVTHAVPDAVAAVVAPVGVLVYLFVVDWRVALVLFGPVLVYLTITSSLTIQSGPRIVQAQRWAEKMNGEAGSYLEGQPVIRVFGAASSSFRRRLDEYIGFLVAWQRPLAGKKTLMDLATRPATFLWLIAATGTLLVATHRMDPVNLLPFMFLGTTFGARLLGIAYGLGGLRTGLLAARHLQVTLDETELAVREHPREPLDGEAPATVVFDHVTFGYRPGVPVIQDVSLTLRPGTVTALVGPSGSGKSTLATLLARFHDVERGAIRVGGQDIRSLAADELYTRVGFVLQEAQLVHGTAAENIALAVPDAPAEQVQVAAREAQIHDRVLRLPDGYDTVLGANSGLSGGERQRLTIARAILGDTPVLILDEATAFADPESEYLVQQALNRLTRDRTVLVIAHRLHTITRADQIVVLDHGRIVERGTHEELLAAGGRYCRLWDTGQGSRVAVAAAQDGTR
Test: cryo-EM structure; full-length IrtAB without nucleotide, in digitonin, 20 mmol/L MES pH 6.5, 150 mmol/L NaCl; inward-facing
Details: both partners purified

B1: IrtB with C-terminal 10x His tag (subunit of Mtb IrtAB) (natural protein)
chain: MIRTWIALVPNDHRARLIGFALLAFCSVVARAVGTVLLVPLMAALFGEAPQRAWLWLGWLSAATVAGWVLDAVTARIGIELGFAVLNHTQHDVADRLPVVRLDWFTAENTATARQAIAATGPELVGLVVNLVTPLTSAILLPAVIALALLPISWQLGVAALAGVPLLLGALWASAAFARRADTAADKANTALTERIIEFARTQQALRAARRVEPARSLVGNALASQHTATMRLLGMQIPGQLLFSIASQLALIVLAGTTAALTITGTLTVPEAIALIVVMVRYLEPFTAVSELAPALESTRATLGRIGSVLTAPVMVAGSGTWRDGAVVPRIEFDDVAFGYDGGSGPVLDGVSFCLQPGTTTAIVGPSGCGKSTILALIAGLHQPTRGRVLIDGTDVATLDARAQQAVCSVVFQHPYLFHGTIRDNVFAADPGASDDQFAQAVRLARVDELIARLPDGANTIVGEAGSALSGGERQRVSIARALLKAAPVLLVDEATSALDAENEAAVVDALAADPRSRTRVIVAHRLASIRHADRVLFVDDGRVVEDGSISELLTAGGRFSQFWRQQHEAAEWQILAE
notes: also called Rv1349
Question: Does B1 bind?
Answer: binds
